The test concerns the target Recombinant His-tagged mouse CD36.ECD protein (Sino Biological) (mouse) (UniProt Q08857). In words: ELISA, coated mouse CD36.ECD (FIG. 1D). Background: In an ELISA, binding on a coated surface is turned into a signal by an enzyme label.

Sequence of Recombinant His-tagged mouse CD36.ECD protein (Sino Biological) (mouse) (Q08857 30-439 limits assumed): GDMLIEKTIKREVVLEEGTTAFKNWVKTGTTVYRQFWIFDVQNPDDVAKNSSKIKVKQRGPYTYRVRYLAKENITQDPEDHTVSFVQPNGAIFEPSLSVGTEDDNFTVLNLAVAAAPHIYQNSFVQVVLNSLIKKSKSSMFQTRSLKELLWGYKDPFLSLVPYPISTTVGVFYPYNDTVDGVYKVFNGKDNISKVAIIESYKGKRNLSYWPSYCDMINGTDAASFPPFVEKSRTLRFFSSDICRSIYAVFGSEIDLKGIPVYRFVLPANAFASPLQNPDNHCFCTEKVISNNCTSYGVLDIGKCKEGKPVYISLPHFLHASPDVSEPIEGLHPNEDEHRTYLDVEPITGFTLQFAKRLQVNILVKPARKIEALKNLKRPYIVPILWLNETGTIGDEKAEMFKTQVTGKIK

Consider “D2712 (clone CRF D-2712, BD Biosciences, US) (antibody)”, for which the EC50 stood at 0.93 nM.

Broadly, the EC50 is the concentration needed to bring the measured effect to its halfway point.

(Values after patent US20250206837A1.)
